Source: patent US7960140B2, “Avidin mutants” (Orion Diagnostica Oy, priority 2003, dated 2011)
Read-outs that look alike come from different tables or passages of the source.

Columns and labels:
[1] = Dissociation assay with fluorescent biotin conjugate (ArcDia BF560); type: binding
Experimental: The biotin-binding properties of produced mutagenised dcAvds were analysed by method based on the quenching of biotin-coupled fluorescent probe ArcDia BF560 (ArcDia Ltd., Turku, Finland) due to binding to avidin (FIG. 4). PerkinElmer LS55 luminometer was used for measurements. […] The spectra of 50 nM biotin-Bf560 solution in 50 mM Na-phosphate containing 650 mM NaCl was measured (red). Chicken avidin (Belovo S. A., Bastogne, Belgium) was added to final subunit concentration of 83 nM and green spectra was obtained.
Briefly, 50 nM free biotin-Bf560 solution in 50 mM Na-phosphate containing 650 mM NaCl was measured using excitation at 560 nm (2.5 nm slit) and emission was collected at 578 nm (5 nm slit). Continuous stirring (setting low) was used throughout the analysis. After 100 sec measurement, the protein under study was added to final biotin-binding subunit concentration 50 nM and the measurement was continued for 500 sec. […]
A one-phase dissociation model was used to analyse the data, as described elsewhere (Hytönen et al., (2004) Biochem J, in press). The dissociation rate constant (kdiss) was determined by fitting the equation −kdisst=ln(B/Bo) to the data. Bo is the measured maximum binding (100%) determined as the difference between the fluorescence of the free dye and the fluorescence of the protein-dye complex, and B is the amount of complex measured as a function of time. The first 500 seconds were omitted from the data to abolish the effect of the fast initial phase characteristic of avidin-BF560-biotin interaction (FIG. 9). The fraction of fluorescent biotin released after one-hour was determined, as well as the times of half-maximal (t½) and quarter-maximal (t¼) release. For dual chain avidins with modified binding sites, it was hypothesized that 50% of the binding sites would behave like those of wt avidin (cpAvd5S4 binding site of dcAvd was not modified). The dissociation data measured for wt avidin divided by two was subtracted from the data measured for the modified dual chain avidins and the dissociation curve was fitted to the difference as above.

[2] = Free biotin-binding sites by quenching of intrinsic fluorescence on biotin titration; conditions: for Fluorescence quenching (350 nm): intrinsic fluorescence, emission 350 nm, due to binding of biotin; for Number of free biotin-binding sites per quaternary unit: protein 500±15 nM, titrated with biotin
Experimental: The number of free binding sites was determined based on the quenching of the intrinsic fluorescence of avidin due to binding of biotin (Laitinen et al., (2003) J. Biol. Chem. 278, 4010-4014). The protein sample under study diluted to 2 ml volume in 50 mM NaPO4 pH 7.0+650 mM NaCl was titrated with 1 μl additions of 70 μM biotin solution in the same buffer. The protein concentration in this assay was 500±15 nM, and the concentration was determined by comparing the emission intensity averaged over 340-350 nm (excitation at 280 nm) to avidin standard sample. The protein sample was continuously mixed by magnetic stirrer.
Intensity from each biotin concentration was averaged over eight second measurement. The end-point of the quenching was determined by fitting a line to obtained data and determining the total quenching by averaging the last three measured intensities (FIG. 12, Table 6).

[3] = Microplate temperature stability assay; type: physicochemical; conditions: for activity after 32 min treatment: 80° C.
Experimental: FIG. 13. Temperature sensitivity determined by microplate assay. The avidin, dcAvd and scAvd sample is treated with the indicated temperature for certain time and the ability to bind biotinylated alkaline phosphatase was determined by coating the microplate with the sample.
The stability of the protein was studied by microplate assay as described in the article by Nordlund et al., (2003) J Biol Chem 278, 2479-83. In this assay, 50 mM Na—PO4 buffer containing 100 mM NaCl was used and the protein was heated to 80° C. or 90° C. for certain time. After that, the capacity to bind fluorescent biotin was measured as described in the article by Nordlund et al., (2003) J Biol Chem 278, 2479-83.

[4] = Radiobiotin dissociation assay; type: binding; conditions: various temperatures
Experimental: FIG. 11. Radiobiotin dissociation assay for scAvd. Temperature-dependence of biotin dissociation rates measured by the [3H]biotin dissociation assay. Dissociation rate constant of radiobiotin was determined at various temperatures. The dissociation rate constants determined previously for avidin and streptavidin are also shown. The determined kdiss-values are connected by lines.
Radiobiotin assay was performed for scAvd in various temperatures.

[5] = IAsys optical biosensor binding to immobilised 2-iminobiotin; conditions: for Kd: 2-iminobiotin
Experimental: Reversibility of biotin binding and affinity towards 2-iminobiotin were determined with an IAsys optical biosensor (Affinity Sensors, Cambridge, UK) (Table 1.) as described in detail by Marttila et. al. (Marttila, A. T. et al. FEBS Lett 441, 313-7 (1998)). Briefly, The 2-iminobiotin ligand was immobilized onto the carboxymethyldextran surface of a cuvette using N-hydroxysuccinimide activation. Binding of various concentrations of avidin or avidin mutants onto 2-iminobiotinylated surface was measured in a 50 mM borate buffer (pH 9.5) containing 1 M NaCl at 20° C. The 2-iminobiotin cuvettes were regenerated with 20 mM HCl. The kinetic rate constants for association (kass) and dissociation (kdiss) were calculated using the Fast Fit program package (Affinity Sensors). The obtained rate constants were used to calculate Kd(rel) according to Kd=kdiss/kass. Equilibrium data obtained from measurements with different protein concentrations were used to calculate the dissociation constant Kd(eq).

[6] = Reversibility of biotin binding on biotinylated IAsys cuvette surface; conditions: reversibility from biotin surface; biotin 423 μg/ml, one hour
Experimental: The reversibility of biotin binding was also measured using IAsys apparatus. In the reversibility assay, the sample proteins were allowed to bind to the biotinylated cuvette surface in PBS containing 1 M NaCl. After the equilibrium was reached, the cuvette was filled with PBS, 1 M NaCl containing biotin (423 μg/ml) and the dissociation of the proteins was monitored for one hour.

[7] = Colorimetric HABA-assay for number of free biotin-binding sites; conditions: average from two independent experiments
Experimental: The colorimetric HABA-assay was performed essentially as described by Green (Green, N. Methods in Enzymology 18, 418-424 (1970)). Dual-chain avidin (dcAvd) in 100 mM phosphate buffer (pH 7) was saturated with excess HABA and the absorbance was measured at 500 nm with a Beckman DU640 spectrophotometer. After that, excess biotin, which replaces HABA from the binding site, was added to the sample and the absorbance at 500 nm was measured again. The observed change in the absorbance was used to calculate the number of free binding sites in dcAvd.
The number of biotin-binding sites per dual-chain avidin pseudo-tetramer (is actually a dimer with four binding sites) was determined in a colorimetric HABA-assay according to Green (Green, N. Methods in Enzymology 18, 418-424 (1970)). The average from two independent experiments gave an approximation of 3.3 free biotin-binding sites per dimeric molecule (pseudo-tetramer).

[8] = SDS-PAGE-based thermal stability assay; type: physicochemical
Experimental: Thermal stability of the mutants was studied by using a SDS-PAGE-based method essentially as described in detail by Bayer et al. (Bayer, E. A. et al. Electrophoresis 17, 1319-1324 (1996)). Briefly, the protein sample in the absence or presence of biotin was diluted to a final concentration of 0.2 mg/mil in 50 mM Na-carbonate buffer, and the proteins were acetylated by adding acetyl NHS ester. Equal amount of SDS-PAGE sample buffer was added to each sample and the protein was incubated at different temperatures (between 25-100° C.) for 20 minutes. After that the samples were subjected to SDS-PAGE analysis and the gel was finally stained with Coomassie brilliant blue. Dissociation of the proteins into their subunits was observed from the gels and the transition temperatures, wherein half of the protein was (pseudo-)tetrameric and half monomeric were determined.

[9] = Heat-induced unfolding by DSC; type: physicochemical
[10] = 2-iminobiotin surface, 50 mM borate pH 9.5, 1 M NaCl, 20° C.

B1: scAvd: single-chain avidin, two dcAvd fused tail-to-head via 12 amino-acid linker GGSGSGSGSGSG (SEQ ID NO:24) (protein, listed as Gallus gallus)
chain: MVHATSPLLLLLLLSLALVAPGLSARKRTQPTFGFTVNWKFSESTTVFTGQCFIDRNGKEVLKTMWLLRSSVNDIGDDWKATRVGINIFTRLRTQKEGGSGGSARKCSLTGKWTNDLGSNMTIGAVNSRGEFTGTYITAVTATSNEIKESPLHGTQNTINKSGGSTTVFTGQCFIDRNGKEVLKTMWLLRSSVNDIGDDWKATRVGINIFTRLRTQKEGGSGGSARKCSLTGKWTNDLGSNMTIGAVNSRGEFTGTYITAVTATSNEIKESPLHGTQNTINKRTQPTFGFTVNWKFSEGGSGSGSGSGSGRTQPTFGFTVNWKFSESTTVFTGQCFIDRNGKEVLKTMWLLRSSVNDIGDDWKATRVGINIFTRLRTQKEGGSGGSARKCSLTGKWTNDLGSNMTIGAVNSRGEFTGTYITAVTATSNEIKESPLHGTQNTINKSGGSTTVFTGQCFIDRNGKEVLKTMWLLRSSVNDIGDDWKATRVGINIFTRLRTQKEGGSGGSARKCSLTGKWTNDLGSNMTIGAVNSRGEFTGTYITAVTATSNEIKESPLHGTQNTINKRTQPTFGFTVNWKFSE
[1]; 25° C.
  Dissociation of fluorescent biotin Release 1 h: 8.8%
  Dissociation of fluorescent biotin kdiss: 1.3e-05 s⁻¹
[1]; 50° C.
  Dissociation of fluorescent biotin Release 1 h: 62.3%
  Dissociation of fluorescent biotin kdiss: 0.00025 s⁻¹
[2]
  quenching measured for whole emission spectrum (290-500 nm) due to biotin binding: 39.7%
  Fluorescence quenching (350 nm): 44.4%
  Number of free biotin-binding sites per quaternary unit: 3.2
[3]
  activity after 32 min treatment: 26%
[3]; 90° C.
  heat inactivation: fast denaturation
[3]; 100° C.
  heat inactivation: fast inactivation
[4]
  dissociation of [3H]biotin: extremely slow dissociation of [3H]biotin

B2: dcAvd: dual-chain avidin, fusion of cpAvd5→4 and cpAvd6→5 via SGG spacer (SEQ ID NO:2) (protein, listed as Gallus gallus)
chain: MVHATSPLLLLLLLSLALVAPGLSARKRTQPTFGFTVNWKFSESTTVFTGQCFIDRNGKEVLKTMWLLRSSVNDIGDDWKATRVGINIFTRLRTQKEGGSGGSARKCSLTGKWTNDLGSNMTIGAVNSRGEFTGTYITAVTATSNEIKESPLHGTQNTINKSGGSTTVFTGQCFIDRNGKEVLKTMWLLRSSVNDIGDDWKATRVGINIFTRLRTQKEGGSGGSARKCSLTGKWTNDLGSNMTIGAVNSRGEFTGTYITAVTATSNEIKESPLHGTQNTINKRTQPTFGFTVNWKFSE
[5]; [10]
  kass: (9.8 ± 1.3) × 10^4 M^−1s^−1
  kdiss: (1.1 ± 0.5) × 10^−3 s^−1
[5]; calculated from the rate constants (kdiss/kass), read-out: Kd(rel)
  Kd: 110 nM
[5]; determined experimentally from the binding curves, read-out: Kd(eq)
  Kd: 41 nM
[6]
  reversibility: 8%
[7]
  free biotin-binding sites per dimeric molecule (pseudo-tetramer): ~3.3
[8]; Table 2, absence of biotin, half of tetramer/pseudo-tetramer broken into monomers
  Tr: 40 °C
[8]; Table 2, presence of biotin
  Tr + btn: 75 °C
[8]; Table 5, transition midpoint of oligomeric disassembly, without biotin
  SDS-PAGE stability assay Tr (−)biotin: 40 °C
[8]; Table 5, with biotin
  SDS-PAGE stability assay Tr (+)biotin: 75 °C
[1]; 23 ± 1° C., 100-fold molar excess of free biotin
  Release 1 h: 10.1%
[1]; 23 ± 1° C., one-phase dissociation model
  kdiss: 1.4e-05 s⁻¹
[1]; 25° C.
  Dissociation of fluorescent biotin Release 1 h: 10.1%
  Dissociation of fluorescent biotin kdiss: 1.5e-05 s⁻¹
[1]; 50° C.
  Dissociation of fluorescent biotin Release 1 h: 67.4%
  Dissociation of fluorescent biotin kdiss: 0.00027 s⁻¹
[9]; change in Tm upon addition of a three-fold molar excess of biotin
  ΔTm: 35.7 °C
[9]; three-fold molar excess of biotin
  DSC Tm (+)biotin: 115.9 °C
[9]; without biotin
  DSC Tm (−)biotin: 80.2 ± 0.0 °C
[2]
  quenching measured for whole emission spectrum (290-500 nm) due to biotin binding: 45.1%
  Fluorescence quenching (350 nm): 51.4%
  Number of free biotin-binding sites per quaternary unit: 3.86
[3]
  activity after 32 min treatment: 59%
[3]; 90° C.
  heat inactivation: fast denaturation
[3]; 100° C.
  heat inactivation: fast inactivation
